Substitutions are numbered along the chain they refer to. Numbers in names are those of the source.
B1: IreB Y79E (purified recombinant) (natural protein, Enterococcus faecalis)
chain: MGFTDETVRFDFDDNRKKAISETLETVYRALEEKGYNPINQIVGYLLSGDPAYIPRYQDARNLIRRHERDEIMEELTKEYLANHGIDIK
B2: IreB (purified recombinant wild-type) (natural protein)
chain: B1 chain with E79Y
B3: IreB L81W (purified recombinant) (natural protein, Enterococcus faecalis)
chain: B1 chain with E79Y, L81W

What was measured:
[1] = target: the molecule itself; assay: SEC
[2] = target: the molecule itself; assay: AUC

Protein	stoichiometry N [1]	stoichiometry N [2]
B1	2	–
B2	2	2.05
B3	2	–

— PMC5527686 (Journal of molecular biology, 2017)
